Experimental findings from the nanobody polyreactivity screen of Harvey et al. (2022) are described below.

The data set can be described thus: yeast display, Sf9 membrane polyspecificity reagent, FACS + sequencing; frameworks hold sequencing errors. The procedure, abridged: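 Polyreactivity labels are assigned by the sorting gate from which each nanobody was recovered. The gates were low and high (top ~1%), set on anti-HA fluorescence for expression and streptavidin fluorescence for reagent binding. Before sorting, galactose-induced (36–48 hours) yeast display cells were stained for 1 hour at 4 °C with 10% biotinylated, detergent-solubilized Sf9 membrane reagent.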
With “QVQLVESGGGLVQAGGSLRLSCAASGSTIWPYTMGWYRQAPGKERELVAAITLRGGTTYYADSVKGRFTISRDNAKNTVYLQMNSLKPEDTVVYYCNATSGNPASTAWMNYWGQGTQVTVSS”, the “polyreactivity (PSR sort gate)” value is given as “low polyreactivity”. The value for “QVQQQESRGGLVQAGGSLRLSCAASCTISQEDWMGWYRQAPGKEREFVAAIGLGSNTNYADSLKGRFTISRDNAKNTVYLQMNSLKPEDTAVYYCAVSVWQYSDHVYRGQGTQVTVSS” was “low polyreactivity”; that for “QVQLVESGGGLVQAGGSLRLSCAASGYNFVRNAMGWYRQAPGKERELVAAISGSGGSTYYADSVKGRFTISRDNAKNTVYLQMNSLKPEDTAVYYCAADYATVTWRGIAYDYWGQGTQVTVSS” was “low polyreactivity”. As for “QVQLVESGGGLVQAGGSLRLRCAASGRIFRGYAMGWYRQAPGKERELVAAISWSGGSSTYADSVKGRFTISLDNAKNTVYLQMNSLKPEDTAVYDCNRVSRGRGRLTVDYQAEGYDSWGQGTQVTVSS”, the “polyreactivity (PSR sort gate)” value was “high polyreactivity”. As for “QVQLVESGGGLVQAGASLRLSCASSGSIFPGYDMGWYRQAPGKEREMVAAITTGGSTYYADSVKGRFTISRDNAKNTVYLQMNSLKPEDTAVYYCAAVYTGSGKRYYKGYYWGQGSQVTVSS”, the entry is “low polyreactivity”; as for “QVQLVESGGGLVQAGGSLRLSCAASGLIFYRYAMGWYRQAPRKERELVARISYRTTSTYYADSVKGRFTISRDNAKNNVYLQMNSLKPEDTAVYYCAASRFAYRVRYLFEYWGHGTQVTVSS”, “high polyreactivity”; as for “QVQLQESGGGLVQAGGSLRLSCAASGSIFKVVDMGLYRQAPGKEREFVATNGEGGNTYSADSVKGRFTISRDNAKNTVYRQMNSLKPEATAVYFYAVVLGTSYRYTYWGQGTQVTVSS”, “low polyreactivity”. The value for “QVQLVESGGGLVQAGGSLRLICAASGSTFCRYAMGRDRQARGKEMELVAAISTRGGSTRYADSVKGRFTISRDYAKYTVYLLINRLKPEDTGVYYCDALGQGRTSATSFVDYEYWGQGTQVTVSS” was “high polyreactivity”. As for “QVQLVESGGGLVQAGGSLRLSCAASGSTFVRYAKGWYRQAPGKERELVAGISRRSGRTYYADSVKGRFTISRDNAKNTVYLQMNSLKPEDTAVYYCAARGIGGYEYWGQGTQVTVSS”, the entry is “high polyreactivity”; as for “QVQLVDSGGGLLQAGGSLRLSCAASGSTFVAYAMGWYRQAPGKEREFVAGISSSTGGTRYADSVKGRFTISRDNAKNTVYLQMNSLKPEDSAVYYCAADLYFYYVWIRVYWGQGTQVTVSS”, “low polyreactivity”; as for “QVQLVESGGGLVQAGGSLRLTCAASGFIFAHYAMGWYRQAPGKERELVAAISSRGGSTYYADSVKGRFTISRDNAKNTVYLQMNSLKPEDTAVYYCAKARHRPARGYEYWGQGTQVTVSS”, “high polyreactivity”. Regarding “QVQLVESGGGLVQAGGSLRLSCAASGSIFYHNAMGWYRQAPGKERELVAAITSGGSTHYADSVKGRFTISRDNAKNTVYLQMNSLKPEDTAVYYCNARDRRRTNLLDYWGQGTQVTVSS”, the “polyreactivity (PSR sort gate)” value is “low polyreactivity”. As for “QVQLVESGGGLVQAGGSLRLSCAASGRTFAPYAMGWYRQAPGKERELVAGITYRTGNTYYADSVKGRFTISRDNAKNTVYLQMNTLKPEDTGVYYCAAYSGYYRPRYNYWGQGTQVTVSS”, the entry is “high polyreactivity”; as for “QLQHVETGGGLVQAGGSLRLSCAASGRIFIRNHMGWYRQAPGKERELVAVITRSGGRTYYADSVKGRFTISRDNANNTVYLQMNRVKPEDTAVYYCAKRQAFKQATYDYWGQGTQVTVSS”, “low polyreactivity”; as for “QVQLVESGGGLVQAGGSLRLSCAASGSIFTPYAMGRYRQAPGKERELVAAISRSGGRTYYADSVKGRFTISRDNAKNTVYLQMNSLKPEDTAVYYCNAGAGQRVSGHSFEYWGQGTQVTVSS”, “high polyreactivity”.

“QVQLVESGGGLVQAGGSLRLSCAASGFTFRYYAMGWYRQAPGKERELVATIRTSGGSTYYADSVKGRFTISRDNAKNTVYLQMNSLKPEDTAVYYCAVRGRNWQHTRFNYWGQGTQVTVSS”: the “polyreactivity (PSR sort gate)” value is recorded as “high polyreactivity”. As for “QVQLVESGGGLVQAGGSLRLSCAASGLIFGRYAMGWYRQAPGKERELVAGISGSGGITYYADSVKGRFTISRDTAKNTVYLQMHILKPEDTAVYYCATAAASHKYGYWGQGTQVTVSS”, the entry is “low polyreactivity”; as for “QVQLVESGGGLVQAGGSLRLSWAASGSIFFLYAMGWYRQAPAKERELVAAITSIGGSTYADSVKGRFTISRDNAKNTVYLQMNSLKPEDTAVYYCNTDEYPLTVQVQYYYWGQGTEVTVSS”, “low polyreactivity”.

With “QVQLVESGGGLVQAGGSLRLSCAASGISFSYYAMGWSRQAPGKERELVAAISSSGSTNYADSVKGRFTISRDNAKNTVYLQMNSLKPEDTAVYYCNAGYGRRVYVYSFKLRYNYWGQGTQVTVSS”, the “polyreactivity (PSR sort gate)” value was “high polyreactivity”. The value for “QGQLVESGGGLVQAGGSLRLSCPASGRIYVFYAMGRYRQATGKEREFVATISYSGDTTYYADSVKGRFTISRDNAKNTVYLQMNSLKPEDTAVYYCAADLVPSYYYVPMGYDSWGQGTQVTVSS” was “low polyreactivity”; that for “QVQLVESGGGLVQAGGSLRLSCAASGSTFRYYTMGWYRQAPGKERELVAAISGSGGITYYADSVKGRFTMSRDNAKNNVYLQMNSLKPEDTAVYYCNAGVFYRDDYWGQGTQVTVSS” was “high polyreactivity”. As for “HVQLVESGGGLVQAGGSLRLSCAASGIIFPIYAMGWYRQAARKERELVASISQSGASTYYADSVKGRFTISRDNAKNTVYLQMNSLNPEDTGVYYCAALNGVGPWQLSYEEFDYWGQGTQVTVSS”, the entry is “low polyreactivity”. Turning to “QVQLVESGGGLVQAGGSLRLSCAASGSIFPGYAMGWYRQAPGKERELDATITWSGGSTYYADSVKGRFTISRDTAKNTVYLQMNSLKPEDTAVYYCNADSNWYYQWNYYGLYDYWGQGTQVTVSS”, the “polyreactivity (PSR sort gate)” value was “low polyreactivity”. On to “QVQLVESGGGLVQAGGSLRLSCAASGRIFVRNAMGWYRQAPGKERELVAAITRTGASTYYADSVKGRFTISRDNAKNTVYLQMNSLKPDDTAVYYCAAVWGWPYWVYRYDYWGQGTQVTVSS”, for which the “polyreactivity (PSR sort gate)” value is reported as “high polyreactivity”. As for “QDQLVESGGGLVQAGGSLRLSCAASGLIVGDYAMGWYRQAPGKERELVAAITGSVTRTYYADSVKGRFTISRDNAKNTVYLQMNSLKPEDTAVYYCATRVHYIGFYDYDYWGQGTQVTVSS”, the entry is “low polyreactivity”; as for “QVQLVESGGGLVQAGGSLRLSCAASGSIFYPYAMGWYRPAPGTERELVASISWSGGSTRYADSVKGRFTISRDNAKNSVYLQMNSLKPEDTAVYYCNAGYRTRHISLYDYWGQGTQVTVSS”, “high polyreactivity”; as for “QVQLVESGGGLVQAGGSLRLSCAASGFIFRYYAMGWYRQAPGKERELVAAISKRGGRTYYADSVKGRFTISRDNAKNTVYLQMNSLKPEDTAVYYCAAGVGTVAPDMDYWGQGTQVTVSS”, “high polyreactivity”. The value for “QVQLVESGGGLVQAGGSLRLSCAASGRTFDTYAMGWYRQAPGKERELVAAISTTGRTYYADSVKGRFTISRDNAKNTVYLQMNSLKPEDTALYYCATDPTRSPTSDWGYYYWGQGTQVTVSS” was “low polyreactivity”; that for “QVQLVESGGGLVQAGGSLRLSCAASGSTFPQNVMGWYRQAPGKERELVAAITRSAGSTYYADSVKGRFTISRDNAKNTVYLQMNSLKPEDTAVYYCNTGRQRGDGWGQGTQVTVSS” was “high polyreactivity”. The value for “QVQLVESGGGLVQAGGSLRLSCAASGSIFTTYAMGWYRQAPGKERELVAAISSGGGTNYADSVKGRFTISRDNAKNTVYLQMNSLKPEDTAVYYCNKRYYRLQLHNAYGATPRRNYWGQGTQVTVSS” was “low polyreactivity”. With “QVQLEESGVGLVQAGGSLRFSCAASGRIFYSYAMGCDRQAPGKERELVATISSAGSTYYADSVKGRFTISRDNAKNTVYLQMNSLKPEDTAVYYCAARRPRRYGYWGLGTQVTVSS”, the “polyreactivity (PSR sort gate)” value was “high polyreactivity”. The value for “QVQLVQSGGGLVQAGGSLRLSCAASGRTIWANAMGWYRQAPGKESELVAAITTSGGSTNYADSVKGRFTISRDNAKNTVYLQMNSLKPEDTAVYYCNADPTYHVVNGVGYWGQGTQVTVSS” was “low polyreactivity”; that for “QVQLVESGGGLVQAGGSLRLSCAASGSTFDGYAMGWYRQAPAKERELVAAISRSGGRTYYADSVNGRFTISRDNAKITVYLQMNSLKPEDTAFYYCAAMYTYKREDYWGQGTQVTVSS” was “high polyreactivity”.

As for “QVQLVESGGGLVQAGGSLRLSCAASGSIFDYNSMGMYIQAPGKERELVAAISSGGTTYYADSVKGRFTISLDNAKNTVYLHIKSLKPEDTDVYYCAARRAGWWGFYYWGQCTQVTVSS”, the “polyreactivity (PSR sort gate)” value is “high polyreactivity”.

On to “QVQLVESGGGLVQAGGSLRLSCAASGPIFVHNAKGWYRQAPGTERELVAAISWRATRTYYADSVKGRFTISRDNAKNTVYLQMNSLKPEDTAVYYCAAVTPAYSTSTSSYDYWGQGTQVTVSS”, for which the “polyreactivity (PSR sort gate)” value is given as “high polyreactivity”. The value for “QVQLVESGGGLVQAGGSLRLSCAASGITFDHYTMGWYRHAPGKEREFVADITGSGVRTYYADSVKGRFTISRDNAKNTVYLQMNCLKAEDNAVYYCAKRRTLYYSGKLGYWGQGTQVTVSS” was “high polyreactivity”. With “QDQLVESGGGLVQAGGSLRLSCAASGSTFYYNAMGLYRQAPGKEREVVARISRSGGSTYADSVKGRFTISRDNAKNTVYLQMNSLKPEDTAVYYCNADAYGTPEFTSYAVRYDYWGQGTQVTVSS”, the “polyreactivity (PSR sort gate)” value was “low polyreactivity”. As for “QVQLVESGGGLVQAGGSLRLSCAASGSTFPKYAMGWYRQAPGKERELVAAISWYGGRTYYADSVKGRFTISRDNAKHTVYLQMNSLKPEDTAVYYCAASIPGTRSDGYWGQGTQVTVSS”, the entry is “low polyreactivity”; as for “QVQLVESGGGLVQAGGSLRLSCAASGSIFVGNAMGWYRQAPGKQRELVATISWSGGSTYYADSVKGRFTISRDNAKNTVYLQMNSVKPEDTAVYYCNAVYVSSFTGHDYWGQGTQVTVSS”, “low polyreactivity”; as for “QVHLVESGGGLVQAGGSLRLSCAASGRTFRRYAMGWYRQAPGKERELVAAISYNGGRTYYADSVKGRFTISRDNAKNSVYLQMNILKPEDTAVYYCNAERGFSDYWGQGTQVTVSS”, “high polyreactivity”. As for “QVQLVESGGGLVQAGGSLRLICAASGIIFNHNAMGWYRQAPGKERELVAAITLSGGTTYYADSVKGRFTISRDNAKNTVYVQMNSLKPEDTALYYCATRSYILGWRYDYWGQGTQVTVSS”, the entry is “high polyreactivity”.
